Where a chain is given by its changes, count along the chain named. Names and notes keep the numbering of the source. Values belong to the binder of their own block, whether it stands above or below them.
Experiments:
[1] = molecular target: T1, E. aridi E1^BilD (1-507, C417A) (Ensifer aridi TW10, C417A); experiment: SEC-MALS
T1 chain: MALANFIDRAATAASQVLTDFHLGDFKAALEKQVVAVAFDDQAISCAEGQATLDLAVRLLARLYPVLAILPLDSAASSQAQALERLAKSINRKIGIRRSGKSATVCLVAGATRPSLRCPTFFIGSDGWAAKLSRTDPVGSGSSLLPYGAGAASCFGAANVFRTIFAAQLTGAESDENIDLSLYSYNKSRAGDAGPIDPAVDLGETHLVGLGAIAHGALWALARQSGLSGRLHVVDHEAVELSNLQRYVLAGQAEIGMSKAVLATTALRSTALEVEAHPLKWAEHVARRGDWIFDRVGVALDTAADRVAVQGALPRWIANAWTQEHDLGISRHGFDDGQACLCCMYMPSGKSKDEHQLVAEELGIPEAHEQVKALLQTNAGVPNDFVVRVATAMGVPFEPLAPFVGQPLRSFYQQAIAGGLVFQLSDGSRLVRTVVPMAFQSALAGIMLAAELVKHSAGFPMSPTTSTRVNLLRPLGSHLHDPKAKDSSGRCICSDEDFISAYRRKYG

SEC-MALS = molecular target: the molecule itself; experiment: SEC-MALS

- binding result [1]: binds
B1: E. aridi E2^BilB (1-181, wild type) (enzyme, Ensifer aridi TW10)
chain: MPELQTVDPEVSRAKFDREISRFRPYADAYRMQGCFLIEESFPSAFFIFASPKVKPRVIGAAIEIDFTNYDLRPPSVVFVDPFTRQPIARKDLPLNMLRRPQLPGTPPEMISNLIQQNAVSLTDFIQANSLQDSPFLCMAGVREYHDNPAHSGDPWLLHRGSGEGCLAFILDKIIKYGTGP
- stoichiometry N (SEC-MALS): 2

- binding result [1]: binds
B2: E. aridi E2^BilB (1-181) Mutant 1 (F36R/I48A/I59K/F83E) (enzyme, Ensifer aridi TW10)
chain: B1 chain with F36R, I48A, I59K, F83E

- binding result [1]: binds
B3: E. aridi E2^BilB (1-181) Mutant 2 (F36R/I38A/F46K/I48A/I59K/F83E) (enzyme, Ensifer aridi TW10)
chain: B1 chain with F36R, I38A, F46K, I48A, I59K, F83E

- binding result [1]: binds
B4: E. aridi Ubl^BilA (17-97) (domain or fragment, Ensifer aridi TW10)
chain: KIEIIVVVNGQPTQVEANPNQPLHVVRTKALENTQNVAQPPDNWEFKDEAGNLLDVDKKIGDFGFANTVTLFLSLKAGVAG
